Data: patent EP2172481A1

Biological target: oocyst extract
Assay: antigen binding analysis on oocyst extract; method not stated

- Kd: 0.55 nM
B1: Di-kappa-body (protein)
chain: QVQLQQSGPELVKPGASVKMSCKASGYTFTVYIIHWLKQKPGQGLEWIGYINPYNDGTKYNEKFRGKATLTSDKSSSTAYMELSSLTSEDSAVYYCARFYYGSSSVFDYWGQGTTLTVSSGGSGGSDVVMTQTQKFMSTSVGDRVSVTCKASQNVGTNVAWYQQKPGQSPKALIYSASYRYSGVPDRFTGSGSGTDFTLTISNVQSEDLAEYFCQQYNSYPLTFGAGTKLELKRTVAAPSVFIFPPSDEQLKSGTASVVCLLNNFYPREAKVQWKVDNALQSGNSQESVTEQDSKDSTYSLSSTLTLSKADYEKHKVYACEVTHQGLSSPVTKSFNRGEC
